US20080318834A1, “Antimicrobial Lactoferrin Compositions for Surfaces, Cavities, and Foodstuff” (priority 2004, published 2008)

Legend:
[1] = system: E. coli ATCC 43895 (E. coli O157:H7); experiment: in vitro Tryptic Soy Broth (TSB) growth inhibition assay (Bioscreen C, OD 420-580 nm); assay type: cell-based, Escherichia coli
[2] = system: Ps. aeruginosa (Pak strain); experiment: in vitro growth inhibition assay in Luria Broth Base (LB) (Bioscreen C, OD 420-580 nm); assay type: cell-based, Pseudomonas aeruginosa; details: 2% (w/v) LF in PBS, sample pH of 1.7 or lower; 200 CFU's/well (200 CFU's:1 mg LF); FIG. 1B

B1: lactoferrin (protein, UniProt P02788 20-710, looked up)
Lactotransferrin: GRRRSVQWCAVSQPEATKCFQWQRNMRKVRGPPVSCIKRDSPIQCIQAIAENRADAVTLDGGFIYEAGLAPYKLRPVAAEVYGTERQPRTHYYAVAVVKKGGSFQLNELQGLKSCHTGLRRTAGWNVPIGTLRPFLNWTGPPEPIEAAVARFFSASCVPGADKGQFPNLCRLCAGTGENKCAFSSQEPYFSYSGAFKCLRDGAGDVAFIRESTVFEDLSDEAERDEYELLCPDNTRKPVDKFKDCHLARVPSHAVVARSVNGKEDAIWNLLRQAQEKFGKDKSPKFQLFGSPSGQKDLLFKDSAIGFSRVPPRIDSGLYLGSGYFTAIQNLRKSEEEVAARRARVVWCAVGEQELRKCNQWSGLSEGSVTCSSASTTEDCIALVLKGEADAMSLDGGYVYTAGKCGLVPVLAENYKSQQSSDPDPNCVDRPVEGYLAVAVVRRSDTSLTWNSVKGKKSCHTAVDRTAGWNIPMGLLFNQTGSCKFDEYFSQSCAPGSDPRSNLCALCIGDEQGENKCVPNSNERYYGYTGAFRCLAENAGDVAFVKDVTVLQNTDGNNNEAWAKDLKLADFALLCLDGKRKPVTEARSCHLAMAPNHAVVSRMDKVERLKQVLLHQQAKFGRNGSDCPDKFCLFQSETKNLLFNDNTECLARLHGKTTYEKYLGPQYVAGITNLKKCSTSPLLEACEFLRK
For B1, the “time for which E. coli growth was inhibited” value ([1]; 2% (w/v) LF in PBS, test sample pH below 2.5, 530 CFU's:1 mg LF, 37° C., FIG. 1A) was “at least 60 hours”, the “antimicrobial activity on E. coli O157:H7 as function of EDTA concentration” value ([1]; 2% (w/v) LF in demi water, 0-1 mM EDTA, pH about 5 not adjusted, 270 CFU's:1 mg LF, FIG. 2) was “increases with increasing EDTA concentration” and the “time for which growth of Pseudomonas aeruginosa is inhibited” value [2] was “at least 45 hours”.
